Legend:
LyPls-PLD (rLyPls-PLD) = target: T1, LyPls-PLD (rLyPls-PLD) (Thermocrispum sp. RD004668, UniProt A0A0U4VTN7); test: inhibition of LyPlsCho hydrolysis, choline oxidase/peroxidase colorimetric assay; type: biochemical; conditions: read-out: Relative activity (%) ^a
T1 construct: gene lyspls; pET24a(+), E. coli SHuffle T7, HisTrap purified; kinetics calculated as monomer
Excerpt: inhibition of LyPlsCho hydrolysis, choline oxidase/peroxidase colorimetric assay on LyPls-PLD (rLyPls-PLD)

purified protein = substrate: CCCCCCCCCCCCCCCC/C=C\OC[C@@H](O)COP(=O)(O)OCCN; test: purified protein; conditions: 80 mM Tris/HCl pH 8.0, 50 °C
[1] = substrate: CCCCCCCCCCCCCCCC/C=C\OC[C@@H](O)COP(=O)([O-])OCC[N+](C)(C)C; test: choline release, choline oxidase/peroxidase colorimetric assay; nonlinear Michaelis-Menten fit; type: biochemical, Thermocrispum sp. RD004668; conditions: 80 mM Tris/HCl pH 8.0, 50 °C, 2 mM CaCl2, 30 s
Excerpt: choline release, choline oxidase/peroxidase colorimetric assay; nonlinear Michaelis-Menten fit on LyPls-PLD (rLyPls-PLD)

[2] = substrate: CCCCCCCCCCCCCCCC/C=C\OC[C@@H](O)COP(=O)([O-])OCC[N+](C)(C)C; test: choline release, choline oxidase/peroxidase colorimetric assay; Hanes-Woolf plot; type: biochemical, Thermocrispum sp. RD004668; conditions: 80 mM Tris/HCl pH 8.0, 50 °C, 2 mM CaCl2
Excerpt: choline release, choline oxidase/peroxidase colorimetric assay; Hanes-Woolf plot on LyPls-PLD (rLyPls-PLD)

CCCCCCCCCCCCCCCC(=O)OC[C@@H](O)COP(=O)([O-])OCC[N+](C)(C)C [LPC, 1‐palmitoyl‐2‐hydroxy‐sn‐glycero‐3‐phosphocholine]
activity at 4000 µM (LyPls-PLD (rLyPls-PLD)): 60.7 ± 0.5%

CCCCCCCCCCCCCCCCCC(=O)OC[C@@H](O)COP(=O)(O)O [LPA, 1‐stearoyl‐2‐hydroxy‐sn‐glycero‐3‐phosphate]
activity at 4000 µM (LyPls-PLD (rLyPls-PLD)): 89.8 ± 0.3%

B1: LyPls-PLD (rLyPls-PLD) (Thermocrispum sp. RD004668) (protein)
chain: TTRTTDNPWLDARVLNMAHAGGENEAPANTLYAFKRAVKLGANMLELDVQSTKDDQLVVIHNATVDQTTDGTGKVRDLTFEQVHELDAAYNFIPGRHAVPGEPPESYPLRGVRTGEKKPPPGYQPSDFAIPKLADVLEAFPRTPINIEIKGTSDADIPSFLHNAKLLARLLKKTGRTDFIVTSFNDLAVAKFHLLAPDIPIAPGMAGLAAYFLLGVKPMHGTVALQIPVRYQGLEIATPEFIRRAHADGYAVHVWFSGTAPDDEATYNRIIDSCADGLMPAYPALLERILDERGIERPGRPGVDPCG
notes: pET24a(+), E. coli SHuffle T7, HisTrap purified; kinetics calculated as monomer
Km (purified protein; 2 mM CaCl2, 3 min): 456 µM
kcat (purified protein; 2 mM CaCl2, 3 min): 4.51 s⁻¹
kcat/Km (purified protein; 2 mM CaCl2, 3 min): 9900 M⁻¹ s⁻¹
Km [1]: 13.2 µM
kcat [1]: 70.6 s⁻¹
kcat/Km [1]: 5.34e+06 M⁻¹ s⁻¹

B2: LyPls-PLD (rLyPls-PLD) (Thermocrispum sp. RD004668; F211A) (protein)
chain: TTRTTDNPWLDARVLNMAHAGGENEAPANTLYAFKRAVKLGANMLELDVQSTKDDQLVVIHNATVDQTTDGTGKVRDLTFEQVHELDAAYNFIPGRHAVPGEPPESYPLRGVRTGEKKPPPGYQPSDFAIPKLADVLEAFPRTPINIEIKGTSDADIPSFLHNAKLLARLLKKTGRTDFIVTSANDLAVAKFHLLAPDIPIAPGMAGLAAYFLLGVKPMHGTVALQIPVRYQGLEIATPEFIRRAHADGYAVHVWFSGTAPDDEATYNRIIDSCADGLMPAYPALLERILDERGIERPGRPGVDPCG
notes: as for B1
Km (purified protein; 2 mM CaCl2): 281 µM
kcat (purified protein; 2 mM CaCl2): 2.88 s⁻¹
kcat/Km (purified protein; 2 mM CaCl2): 10300 M⁻¹ s⁻¹
Km [2]: 112 µM
kcat [2]: 24.8 s⁻¹
kcat/Km [2]: 221000 M⁻¹ s⁻¹

Reference: publication PMC5095149, “Molecular cloning, heterologous expression, and enzymatic characterization of lysoplasmalogen‐specific phospholipase D from Thermocrispum sp” (FEBS Open Bio, 2016)
